Test results taken from the RNAGym collection of RNA variant scans (doi:10.7554/elife.80360).

B1: CPEB3 Ribozyme (parent)
chain: GGGGGCCACAGCAGAAGCGUUCACGUCGCGGCCCCUGUCAGAUUCUGGUGAAUCUGCGAAUUCUGCUGU

Variants of: B1
Experiment: self-cleavage, relative activity (ratio to wild type); higher = more cleavage; co-transcriptional

Variant | self-cleavage
C29G C57G | 0.183
C29G C57U | 0.206
C29G C57A | 0.215
G30C C54U | 0.673
G30C C54G | 0.296
C29U G56A | 0.244
C29U G56U | 0.198
C29U U49G | 0.514
C29U U49A | 0.542
C29U U49C | 0.411
G30A U67G | 0.948
G30A U67A | 0.901
C29U C57G | 0.177
C29U C57A | 0.154
C29U C57U | 0.227
G30C G68A | 0.899
G30C G68U | 0.938
G30C G68C | 0.905
G30A G56C | 0.413
G30A G56U | 0.693
G30A G56A | 0.713
G30A U55G | 0.453
G30A U55C | 0.519
G30A C39G | 0.596

Variant | self-cleavage
G30A C39U | 0.598
G30C C34U | 0.6
G30C C34A | 0.243
G30U G68C | 0.825
G30U G58A | 0.284
G30U G58C | 0.302
G30U G58U | 0.439
G30U C66A | 0.278
G30U C66U | 0.331
G30U C66G | 0.216
C29U C33A | 0.355
C29U C33G | 0.226
C29U U67G | 0.359
C29U U67A | 0.21
C29U U67C | 0.308
G30A A51G | 0.744
G30A A51U | 0.752
C29U | 0.557
C29G C66A | 0.312
C29G C66U | 0.418
G30U | 0.411
G30C | 0.682
G30A | 0.913
G30C A40C | 0.197

Variant | self-cleavage
G30C A40G | 0.462
C29U C35U | 0.314
G30C C45U | 0.603
G30C C45A | 0.51
G30C G47C | 0.696
G30C G47U | 0.71
G30C G47A | 0.617
G30C G31C | 0.136
G30C G31A | 0.252
G30A A42G | 0.817
G30C U61G | 0.304
C29G U44C | 0.314
C29G U44A | 0.338
C29G G37U | 0.185
G30A U46A | 0.723
G30A U46C | 0.866
C29U U38C | 0.189
C29U U38G | 0.238
G30C U55A | 0.466
G30C U55G | 0.323
G30C U55C | 0.388
C29U C45G | 0.404
C29U C45U | 0.505
C29U C45A | 0.307

Variant | self-cleavage
G30C U36A | 0.192
G30C U36G | 0.188
G30A G65C | 0.353
G30A G65A | 0.627
C29U C34A | 0.299
C29U C34G | 0.276
C29U C34U | 0.495
G30A C45U | 0.884
G30A C45G | 0.73
G30C C35G | 0.15
C29G G48C | 0.698
C29G G48A | 0.667
C29G G48U | 0.602
C29G G68C | 0.715
C29G G68A | 0.845
G30U A40G | 0.341
C29U A60U | 0.23
C29U A60G | 0.345
C29G G30C | 0.271
C29G G30A | 0.173
C29U C54U | 0.448
C29U C54G | 0.219
G30C G41A | 0.298
G30C U62G | 0.343

Variant | self-cleavage
G30C U62A | 0.259
G30C U46G | 0.69
C29U U69G | 0.737
C29U U69A | 0.619
C29U U69C | 0.834
G30A U44C | 0.697
G30A U44A | 0.658
C29G G47A | 0.553
C29G G47U | 0.612
C29G G47C | 0.558
G30U G37A | 0.159
G30U G37C | 0.186
C29U A59C | 0.237
C29U A59G | 0.58
G30U C34U | 0.323
G30U C34G | 0.193
G30C U43C | 0.587
G30C U43G | 0.369
G30C C57G | 0.223
G30A G48C | 0.901
G30A G48U | 0.868
C29U A40G | 0.288
C29U A40U | 0.157
C29U A40C | 0.203

Variant | self-cleavage
G30A C32A | 0.245
G30A C32G | 0.261
G30A C32U | 0.714
C29G U46G | 0.603
C29G U46A | 0.707
G30C U67A | 0.869
G30U G56A | 0.218
G30U G56C | 0.196
C29U G50C | 0.321
C29U G50U | 0.517
C29U G50A | 0.524
G30A C33A | 0.203
G30A C33U | 0.691
C29U A42U | 0.262
G30U U36A | 0.198
G30U U36C | 0.179
G30U A42C | 0.282
G30U A42U | 0.247
G30A G68A | 0.988
C29G C54A | 0.259
G30C C32A | 0.194
G30C U49C | 0.721
G30C U49A | 0.686
G30C U49G | 0.564

Variant | self-cleavage
C29G U43G | 0.393
C29G G50U | 0.535
C29G G50A | 0.609
C29G G65U | 0.182
C29G G65C | 0.232
C29G G65A | 0.286
G30A A40G | 0.754
G30A A40U | 0.461
G30A A40C | 0.276
G30C A51G | 0.628
G30C A51C | 0.614
G30U C35G | 0.213
G30U C35A | 0.191
G30U G65U | 0.162
G30U G65C | 0.214
G30A G41A | 0.382
G30A G41C | 0.215
C29U G30U | 0.169
C29U G30C | 0.232
G30U A60C | 0.173
G30U A60U | 0.213
G30C G56A | 0.464
G30C C66A | 0.397
G30C C66U | 0.666

Variant | self-cleavage
G30C C66G | 0.396
G30C G65C | 0.431
C29U A51G | 0.537
C29U G37A | 0.157
C29U G37C | 0.162
C29U G37U | 0.121
G30A C63A | 0.413
G30U C57A | 0.235
G30U C57U | 0.207
G30U C32A | 0.175
G30A U61A | 0.418
C29U C66A | 0.235
C29U C66U | 0.242
C29U G47C | 0.62
C29U G47A | 0.598
G30A C35A | 0.207
G30C U38A | 0.314
G30C U38G | 0.204
G30C U38C | 0.379
G30U C54A | 0.248
G30U C54G | 0.248
G30U C54U | 0.339
C29U U55G | 0.167
C29U U55C | 0.199

Variant | self-cleavage
C29U U55A | 0.173
G30A G31C | 0.254
C29G C63A | 0.23
C29G C63U | 0.418
G30A A59U | 0.361
C29G G31A | 0.146
C29G G31U | 0.131
G30U A51U | 0.345
G30U A51G | 0.4
G30U A51C | 0.306
C29G G41A | 0.236
C29U G65U | 0.167
C29U G65C | 0.272
C29U G65A | 0.19
G30C G58A | 0.359
G30C G58U | 0.579
G30C G58C | 0.494
G30U G31A | 0.196
G30U G31C | 0.149
G30U C45G | 0.354
C29G U36A | 0.157
C29G U36G | 0.236
C29G G58U | 0.558
C29G G58C | 0.416

Variant | self-cleavage
G30A A60C | 0.261
C29U C39U | 0.193
C29U C39A | 0.16
G30U C33A | 0.233
G30U C33G | 0.192
G30U C33U | 0.295
C29U C63U | 0.253
C29G U62G | 0.206
C29G U62C | 0.251
C29G U62A | 0.254
C29U G48A | 0.601
C29U G48U | 0.583
C29G U61A | 0.57
G30U G47U | 0.417
G30A U49G | 0.674
G30A U49C | 0.909
G30U G41A | 0.216
G30U G41U | 0.229
G30C U69C | 0.995
G30C U69G | 0.96
G30C U69A | 0.88
G30C U53C | 0.44
G30C U53G | 0.46
C29U U61G | 0.218

Variant | self-cleavage
C29U U61A | 0.244
C29U U36A | 0.132
C29U G58A | 0.372
C29U G58U | 0.641
G30A U69A | 1
G30A U69C | 1.04
C29U A52U | 0.396
C29U A52G | 0.529
C29U A52C | 0.417
G30C A59C | 0.306
G30C A59G | 0.708
G30C A59U | 0.295
C29U G41C | 0.173
C29U G41A | 0.184
G30A U36A | 0.196
G30C A42G | 0.604
G30C A42C | 0.441
G30A C34U | 0.741
G30A U53A | 0.541
G30A U53C | 0.604
G30A U53G | 0.356
G30C G48C | 0.642
G30C G48A | 0.694
C29G G56U | 0.292

Variant | self-cleavage
C29G G56A | 0.299
C29G G56C | 0.225
G30U C63A | 0.181
G30U C63G | 0.261
G30C C33U | 0.576
G30A U64C | 0.795
C29G U64G | 0.279
C29G U64C | 0.369
C29U U62G | 0.21
C29U U62C | 0.211
C29G U53C | 0.193
C29G U53G | 0.389
C29G U53A | 0.308
G30A A52U | 0.806
G30A A52C | 0.739
G30C C63G | 0.329
G30C C63U | 0.645
C29U U43C | 0.301
C29U G31A | 0.315
C29U G31U | 0.221
G30A G50A | 0.927
G30A G50C | 0.774
C29U U44G | 0.3
C29U U44C | 0.311

Variant | self-cleavage
C29U U64C | 0.371
G30A U62C | 0.497
C29G U38C | 0.302
C29G U38G | 0.207
C29G U49G | 0.65
C29G U49A | 0.521
C29G U69A | 0.757
C29G U69C | 0.892
G30U A59G | 0.309
G30U A59C | 0.172
G30U A59U | 0.222
G30A C66U | 0.861
G30A C66G | 0.61
G30A G47C | 0.93
C29G U55G | 0.171
C29G U55C | 0.253
C29G U55A | 0.267
C29U C32G | 0.165
C29U C32U | 0.645
G30U G48C | 0.416
G30U G48U | 0.393
G30U G48A | 0.455
G30C A60G | 0.411
G30C A60C | 0.285

Variant | self-cleavage
G30C A60U | 0.242
C29U G68A | 0.586
C29U G68U | 0.515
G30U C39G | 0.29
G30U C39U | 0.252
G30U C39A | 0.273
G30A C54U | 0.876
G30A C54A | 0.431
G30A U43A | 0.579
G30A U43G | 0.464
G30A U43C | 0.704
G30U A52G | 0.287
G30U A52C | 0.395
G30A C57U | 0.272
G30C A52G | 0.724
G30C A52C | 0.506
G30C A52U | 0.556
G30A U38C | 0.531
G30A U38G | 0.274
C29U U46A | 0.699
G30C C39A | 0.218
G30C C39U | 0.396
